Assay results: paper PMC9976904, “eIF4A1-dependent mRNAs employ purine-rich 5’UTR sequences to activate localised eIF4A1-unwinding through eIF4A1-multimerisation to facilitate translation”

Columns and labels:
eIF4A1 [1] = molecular target: T1, eIF4A1 (human, UniProt P60842 1-406); test: fluorescence anisotropy; 2 mM AMPPNP/MgCl2; affinity comparable to AG-RNA, Kd in figure only; 20 mM HEPES/KOH pH 7.5, 100 mM KCl, 1 mM TCEP, 1% DMSO, 2 mM AMPPNP/MgCl2, 25 C, 60 min; EMSA gels 6-7% acrylamide-TB, 0.5x TB; conditions: protein: recombinant; tags: N-terminal 6xHis-SUMO, cleaved; label: FAM or 5' Dy780
eIF4A1 [2] = molecular target: T1, eIF4A1; test: EMSA; silvestrol; multimerisation observed; 20 mM HEPES/KOH pH 7.5, 100 mM KCl, 1 mM TCEP, 1% DMSO, 2 mM AMPPNP/MgCl2, 25 C, 60 min; EMSA gels 6-7% acrylamide-TB, 0.5x TB; conditions: protein: recombinant; tags: N-terminal 6xHis-SUMO, cleaved; label: FAM
eIF4A1 [3] = molecular target: T1, eIF4A1; test: EMSA; silvestrol, MgCl2, no ATP; fully bound with and without scavenger AG-RNA; 20 mM HEPES/KOH pH 7.5, 100 mM KCl, 1 mM TCEP, 1% DMSO, 2 mM AMPPNP/MgCl2, 25 C, 60 min; EMSA gels 6-7% acrylamide-TB, 0.5x TB; conditions: protein: recombinant; tags: N-terminal 6xHis-SUMO, cleaved; label: EMSA: 5' Dy780 / 5' Dy680; FRET: 5' Cy3 / 5' Cy5; 5' overhang 20 nt

T1 sequence (P60842 whole entry): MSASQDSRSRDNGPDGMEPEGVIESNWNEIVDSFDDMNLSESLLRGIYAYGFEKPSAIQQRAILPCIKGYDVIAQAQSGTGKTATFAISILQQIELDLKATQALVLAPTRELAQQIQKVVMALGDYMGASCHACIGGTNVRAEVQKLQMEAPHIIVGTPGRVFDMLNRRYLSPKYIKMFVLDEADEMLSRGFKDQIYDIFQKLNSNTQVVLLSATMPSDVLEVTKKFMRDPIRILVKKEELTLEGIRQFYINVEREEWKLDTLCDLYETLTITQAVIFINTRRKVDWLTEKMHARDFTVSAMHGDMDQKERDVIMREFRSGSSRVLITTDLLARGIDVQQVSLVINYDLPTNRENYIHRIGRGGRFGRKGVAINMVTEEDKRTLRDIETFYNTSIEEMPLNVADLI

CAACAACAACAACAACAACA (ssRNA) [CAA-RNA (20 nt)]
binding result (eIF4A1 [1]): binds

AGAGAGAGAG (ssRNA) [10 nt AG-RNA]
binding result (eIF4A1 [2]): binds

B1: AG-overhang 24 bp substrate (EMSA/FRET loading + reporter) (dsRNA)
RNA 1: AGAGAGAGAGAGAGAGAGAGGAAAAAAUUAAAAAAUUAAAAAAC
RNA 2: GUUUUUUAAUUUUUUAAUUUUUUC
binding result (eIF4A1 [3]): binds
